{"source": "patent US20210206859A1", "about": "(DRAGONFLY THERAPEUTICS, published 2021)", "data": [{"target": "T1, B7-H3 expressed on human cancer cell lines (786-O, BT-474, HCC1954) (human, UniProt Q5ZPR3 29-534)", "T1 construct": "The assay used B7-H3 expressed endogenously on the cell lines; also called CD276; cell expressed B7-H3", "T1 sequence": "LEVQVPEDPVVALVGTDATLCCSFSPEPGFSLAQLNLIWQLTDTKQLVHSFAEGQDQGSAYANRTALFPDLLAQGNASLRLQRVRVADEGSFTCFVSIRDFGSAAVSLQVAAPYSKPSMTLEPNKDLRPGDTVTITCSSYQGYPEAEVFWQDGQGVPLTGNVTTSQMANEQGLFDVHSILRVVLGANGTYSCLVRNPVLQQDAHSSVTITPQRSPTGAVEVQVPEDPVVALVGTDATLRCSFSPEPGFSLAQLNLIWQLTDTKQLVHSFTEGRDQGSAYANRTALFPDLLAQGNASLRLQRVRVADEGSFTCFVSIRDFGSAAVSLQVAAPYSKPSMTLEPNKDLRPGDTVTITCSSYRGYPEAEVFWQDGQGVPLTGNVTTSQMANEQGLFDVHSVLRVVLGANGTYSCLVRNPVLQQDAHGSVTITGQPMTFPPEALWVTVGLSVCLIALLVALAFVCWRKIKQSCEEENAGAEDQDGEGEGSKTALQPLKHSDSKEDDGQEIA", "test": "flow cytometry on 786-O, BT-474 and HCC1954 cells, anti-human IgG detection", "method": "Human cancer cell lines expressing B7-H3 were used to assess tumor antigen binding of TriNKETs derived from B7-H3 targeting clones. Human breast cancer cell lines BT-474 and HCC1954 and renal cancer cell line 786-O were used to assess binding of TriNKETs to cell expressed B7-H3. Varying concentrations of either TriNKET or monoclonal antibody were allowed to bind cells for 20 minutes on ice, after which cells were washed and the amount of bound TriNKET/monoclonal antibody was measured using fluorophore conjugated anti-human IgG secondary antibody. Cells were then analyzed by flow cytometry and binding MFI to cell expressed B7-H3 was plotted against varying concentration.", "values": [{"binder": "A49MI-F3′-TriNKET-huAb13v1 (bispecific antibody, human IgG1, kappa, also called TriNKET bearing 13v1 B7-H3 targeting domain; B7-H3 TriNKET) scFv: DIQMTQSPSSLSASVGDRVTITCKASQNVGFNVAWYQQKPGKSPKALIYSASYRYSGVPSRFSGSGSGTDFTLTISSLQPEDFAEYFCQQYNWYPFTFGCGTKLEIKGGGGSGGGGSGGGGSGGGGSEVQLQESGPGLVKPSETLSLTCAVTGYSITSGYSWHWIRQFPGNCLEWMGYIHSSGSTNYNPSLKSRISISRDTSKNQFFLKLSSVTAADTAVYYCAGYDDYFEYWGQGTTVTVSSASDKTHTCPPCPAPELLGGPSVFLFPPKPKDTLMISRTPEVTCVVVDVSHEDPEVKFNWYVDGVEVHNAKTKPREEQYNSTYRVVSVLTVLHQDWLNGKEYKCKVSNKALPAPIEKTISKAKGQPREPRVYTLPPCRDELTKNQVSLTCLVKGFYPSDIAVEWESNGQPENNYKTTPPVLVSDGSFTLYSKLTVDKSRWQQGNVFSCSVMHEALHNHYTQKSLSLSPG heavy: EVQLVESGGGLVKPGGSLRLSCAASGFTFSSYSMNWVRQAPGKGLEWVSSISSSSSYIYYADSVKGRFTISRDNAKNSLYLQMNSLRAEDTAVYYCARGAPIGAAAGWFDPWGQGTLVTVSSASTKGPSVFPLAPSSKSTSGGTAALGCLVKDYFPEPVTVSWNSGALTSGVHTFPAVLQSSGLYSLSSVVTVPSSSLGTQTYICNVNHKPSNTKVDKKVEPKSCDKTHTCPPCPAPELLGGPSVFLFPPKPKDTLMISRTPEVTCVVVDVSHEDPEVKFNWYVDGVEVHNAKTKPREEQYNSTYRVVSVLTVLHQDWLNGKEYKCKVSNKALPAPIEKTISKAKGQPREPQVCTLPPSRDELTENQVSLTCLVKGFYPSDIAVEWESNGQPENNYKTTPPVLDSDGSFFLYSWLTVDKSRWQQGNVFSCSVMHEALHNHYTQKSLSLSPG light: DIQMTQSPSSVSASVGDRVTITCRASQGISSWLAWYQQKPGKAPKLLIYAASSLQSGVPSRFSGSGSGTDFTLTISSLQPEDFATYYCQQGVSFPRTFGGGTKVEIKRTVAAPSVFIFPPSDEQLKSGTASVVCLLNNFYPREAKVQWKVDNALQSGNSQESVTEQDSKDSTYSLSSTLTLSKADYEKHKVYACEVTHQGLSSPVTKSFNRGEC", "binding result": "binds"}, {"binder": "A49MI-F3′-TriNKET-huM30 (bispecific antibody, human IgG1, kappa, also called TriNKET bearing M30 B7-H3 targeting domain; B7-H3 TriNKET) scFv: EIVLTQSPATLSLSPGERATLSCRASSRLIYMHWYQQKPGQAPRPLIYATSNLASGIPARFSGSGSGTDFTLTISSLEPEDFAVYYCQQWNSNPPTFGCGTKVEIKGGGGSGGGGSGGGGSGGGGSQVQLVQSGAEVKKPGSSVKVSCKASGYTFTNYVMHWVRQAPGQCLEWMGYINPYNDDVKYNEKFKGRVTITADESTSTAYMELSSLRSEDTAVYYCARWGYYGSPLYYFDYWGQGTLVTVSSASDKTHTCPPCPAPELLGGPSVFLFPPKPKDTLMISRTPEVTCVVVDVSHEDPEVKFNWYVDGVEVHNAKTKPREEQYNSTYRVVSVLTVLHQDWLNGKEYKCKVSNKALPAPIEKTISKAKGQPREPRVYTLPPCRDELTKNQVSLTCLVKGFYPSDIAVEWESNGQPENNYKTTPPVLVSDGSFTLYSKLTVDKSRWQQGNVFSCSVMHEALHNHYTQKSLSLSPG heavy: EVQLVESGGGLVKPGGSLRLSCAASGFTFSSYSMNWVRQAPGKGLEWVSSISSSSSYIYYADSVKGRFTISRDNAKNSLYLQMNSLRAEDTAVYYCARGAPIGAAAGWFDPWGQGTLVTVSSASTKGPSVFPLAPSSKSTSGGTAALGCLVKDYFPEPVTVSWNSGALTSGVHTFPAVLQSSGLYSLSSVVTVPSSSLGTQTYICNVNHKPSNTKVDKKVEPKSCDKTHTCPPCPAPELLGGPSVFLFPPKPKDTLMISRTPEVTCVVVDVSHEDPEVKFNWYVDGVEVHNAKTKPREEQYNSTYRVVSVLTVLHQDWLNGKEYKCKVSNKALPAPIEKTISKAKGQPREPQVCTLPPSRDELTENQVSLTCLVKGFYPSDIAVEWESNGQPENNYKTTPPVLDSDGSFFLYSWLTVDKSRWQQGNVFSCSVMHEALHNHYTQKSLSLSPG light: DIQMTQSPSSVSASVGDRVTITCRASQGISSWLAWYQQKPGKAPKLLIYAASSLQSGVPSRFSGSGSGTDFTLTISSLQPEDFATYYCQQGVSFPRTFGGGTKVEIKRTVAAPSVFIFPPSDEQLKSGTASVVCLLNNFYPREAKVQWKVDNALQSGNSQESVTEQDSKDSTYSLSSTLTLSKADYEKHKVYACEVTHQGLSSPVTKSFNRGEC", "binding result": "binds"}, {"binder": "A49MI-F3′-TriNKET-Enoblituzumab (bispecific antibody, human IgG1, kappa, also called TriNKET bearing Enoblituzumab B7-H3 targeting domain; B7-H3 TriNKET) scFv: DIQLTQSPSFLSASVGDRVTITCKASQNVDTNVAWYQQKPGKAPKALIYSASYRYSGVPSRFSGSGSGTDFTLTISSLQPEDFATYYCQQYNNYPFTFGCGTKLEIKGGGGSGGGGSGGGGSGGGGSEVQLVESGGGLVQPGGSLRLSCAASGFTFSSFGMHWVRQAPGKCLEWVAYISSDSSAIYYADTVKGRFTISRDNAKNSLYLQMNSLRDEDTAVYYCGRGRENIYYGSRLDYWGQGTTVTVSSASDKTHTCPPCPAPELLGGPSVFLFPPKPKDTLMISRTPEVTCVVVDVSHEDPEVKFNWYVDGVEVHNAKTKPREEQYNSTYRVVSVLTVLHQDWLNGKEYKCKVSNKALPAPIEKTISKAKGQPREPRVYTLPPCRDELTKNQVSLTCLVKGFYPSDIAVEWESNGQPENNYKTTPPVLVSDGSFTLYSKLTVDKSRWQQGNVFSCSVMHEALHNHYTQKSLSLSPG heavy: EVQLVESGGGLVKPGGSLRLSCAASGFTFSSYSMNWVRQAPGKGLEWVSSISSSSSYIYYADSVKGRFTISRDNAKNSLYLQMNSLRAEDTAVYYCARGAPIGAAAGWFDPWGQGTLVTVSSASTKGPSVFPLAPSSKSTSGGTAALGCLVKDYFPEPVTVSWNSGALTSGVHTFPAVLQSSGLYSLSSVVTVPSSSLGTQTYICNVNHKPSNTKVDKKVEPKSCDKTHTCPPCPAPELLGGPSVFLFPPKPKDTLMISRTPEVTCVVVDVSHEDPEVKFNWYVDGVEVHNAKTKPREEQYNSTYRVVSVLTVLHQDWLNGKEYKCKVSNKALPAPIEKTISKAKGQPREPQVCTLPPSRDELTENQVSLTCLVKGFYPSDIAVEWESNGQPENNYKTTPPVLDSDGSFFLYSWLTVDKSRWQQGNVFSCSVMHEALHNHYTQKSLSLSPG light: DIQMTQSPSSVSASVGDRVTITCRASQGISSWLAWYQQKPGKAPKLLIYAASSLQSGVPSRFSGSGSGTDFTLTISSLQPEDFATYYCQQGVSFPRTFGGGTKVEIKRTVAAPSVFIFPPSDEQLKSGTASVVCLLNNFYPREAKVQWKVDNALQSGNSQESVTEQDSKDSTYSLSSTLTLSKADYEKHKVYACEVTHQGLSSPVTKSFNRGEC", "binding result": "binds"}, {"binder": "huAb13v1 (AbbVie Inc.) parental monoclonal antibody (antibody, V domains shown, also called parental mAb; B7-H3 parental monoclonal antibody) VH: EVQLQESGPGLVKPSETLSLTCAVTGYSITSGYSWHWIRQFPGNGLEWMGYIHSSGSTNYNPSLKSRISISRDTSKNQFFLKLSSVTAADTAVYYCAGYDDYFEYWGQGTTVTVSS VL: DIQMTQSPSSLSASVGDRVTITCKASQNVGFNVAWYQQKPGKSPKALIYSASYRYSGVPSRFSGSGSGTDFTLTISSLQPEDFAEYFCQQYNWYPFTFGQGTKLEIK", "binding result": "binds"}, {"binder": "huM30 (Daiichi Sankyo, Inc.) parental monoclonal antibody (antibody, V domains shown, also called parental mAb; B7-H3 parental monoclonal antibody) VH: QVQLVQSGAEVKKPGSSVKVSCKASGYTFTNYVMHWVRQAPGQGLEWMGYINPYNDDVKYNEKFKGRVTITADESTSTAYMELSSLRSEDTAVYYCARWGYYGSPLYYFDYWGQGTLVTVSS VL: EIVLTQSPATLSLSPGERATLSCRASSRLIYMHWYQQKPGQAPRPLIYATSNLASGIPARFSGSGSGTDFTLTISSLEPEDFAVYYCQQWNSNPPTFGQGTKVEIK", "binding result": "binds"}, {"binder": "Enoblituzumab (MacroGenics, Inc.) parental monoclonal antibody (antibody, V domains shown, also called parental mAb; B7-H3 parental monoclonal antibody) VH: EVQLVESGGGLVQPGGSLRLSCAASGFTFSSFGMHWVRQAPGKGLEWVAYISSDSSAIYYADTVKGRFTISRDNAKNSLYLQMNSLRDEDTAVYYCGRGRENIYYGSRLDYWGQGTTVTVSS VL: DIQLTQSPSFLSASVGDRVTITCKASQNVDTNVAWYQQKPGKAPKALIYSASYRYSGVPSRFSGSGSGTDFTLTISSLQPEDFATYYCQQYNNYPFTFGQGTKLEIKR", "binding result": "binds"}]}]}
